Data: patent US20260209293A1 (Novo Nordisk, published 2026)
*1 amine or outer side, *2 acyl side, *3 side chain or, on linkers, in order; H or OH if unused. Side-chain parts run from the residue outwards. The star is where a group is joined. C20 diacid = O=C(O)CCCCCCCCCCCCCCCCCCC(=O)*; C18 diacid = O=C(O)CCCCCCCCCCCCCCCCC(=O)*; γGlu = O=C(O)[C@H](CCC(=O)[*:2])N[*:1]

T1: human amylin-3(a) receptor (human, UniProt P30988 25-474; O60896 24-148)
T1 sequence (looked up) 1: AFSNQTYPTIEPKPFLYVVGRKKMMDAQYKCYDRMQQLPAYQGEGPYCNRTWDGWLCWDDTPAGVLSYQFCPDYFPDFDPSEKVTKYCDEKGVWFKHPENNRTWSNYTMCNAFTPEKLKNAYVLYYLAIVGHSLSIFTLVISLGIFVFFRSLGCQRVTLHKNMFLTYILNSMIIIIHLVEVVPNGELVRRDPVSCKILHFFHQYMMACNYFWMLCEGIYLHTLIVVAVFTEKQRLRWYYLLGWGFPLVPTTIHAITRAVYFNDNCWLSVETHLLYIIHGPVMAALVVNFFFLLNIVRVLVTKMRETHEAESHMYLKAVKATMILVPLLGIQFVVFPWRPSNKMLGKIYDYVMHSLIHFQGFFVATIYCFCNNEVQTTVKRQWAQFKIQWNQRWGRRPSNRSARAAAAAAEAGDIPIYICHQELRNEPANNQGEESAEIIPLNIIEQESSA
T1 sequence (looked up) 2: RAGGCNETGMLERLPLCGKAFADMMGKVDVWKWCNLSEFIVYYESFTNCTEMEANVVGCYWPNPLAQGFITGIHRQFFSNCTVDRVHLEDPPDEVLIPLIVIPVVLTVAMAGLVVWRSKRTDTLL

T2: human calcitonin receptor (a) (human, UniProt P30988 25-474)
T2 sequence (looked up): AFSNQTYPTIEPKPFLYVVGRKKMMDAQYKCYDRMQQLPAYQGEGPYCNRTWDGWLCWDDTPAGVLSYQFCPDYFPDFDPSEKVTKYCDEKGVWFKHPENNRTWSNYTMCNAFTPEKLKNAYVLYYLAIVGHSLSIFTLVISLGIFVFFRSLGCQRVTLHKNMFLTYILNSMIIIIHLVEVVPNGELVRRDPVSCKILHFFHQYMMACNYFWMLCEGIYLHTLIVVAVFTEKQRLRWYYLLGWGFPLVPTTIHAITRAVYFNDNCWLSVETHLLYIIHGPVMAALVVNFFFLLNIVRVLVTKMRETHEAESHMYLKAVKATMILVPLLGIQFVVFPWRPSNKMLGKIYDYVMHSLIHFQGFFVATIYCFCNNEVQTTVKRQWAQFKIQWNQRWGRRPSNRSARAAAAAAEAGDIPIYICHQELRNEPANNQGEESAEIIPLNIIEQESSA

B1: N^1-[(4S)-4-carboxy-4-(19-carboxynonadecanoylamino)butanoyl]-[Ala1,Ser2,His3,Leu4,Ser5,Ala7,Gln8,Ala10,Glu14,His17,Pro25,Pro28,Pro29,Asp31,Glu35,Pro37],des-(19- … (peptide)
peptide: {C20 diacid-γGlu}-ASHLSTAQTARLAEFLHHFGPILPPTDVGSETP-NH2
SMILES: CC[C@H](C)[C@H](NC(=O)[C@@H]1CCCN1C(=O)CNC(=O)[C@H](Cc1ccccc1)NC(=O)[C@H](Cc1c[nH]cn1)NC(=O)[C@H](Cc1c[nH]cn1)NC(=O)[C@H](CC(C)C)NC(=O)[C@H](Cc1ccccc1)NC(=O)[C@H](CCC(=O)O)NC(=O)[C@H](C)NC(=O)[C@H](CC(C)C)NC(=O)[C@H](CCCNC(=N)N)NC(=O)[C@H](C)NC(=O)[C@@H](NC(=O)[C@H](CCC(N)=O)NC(=O)[C@H](C)NC(=O)[C@@H](NC(=O)[C@H](CO)NC(=O)[C@H](CC(C)C)NC(=O)[C@H](Cc1c[nH]cn1)NC(=O)[C@H](CO)NC(=O)[C@H](C)NC(=O)CC[C@H](NC(=O)CCCCCCCCCCCCCCCCCCC(=O)O)C(=O)O)[C@@H](C)O)[C@@H](C)O)C(=O)N[C@@H](CC(C)C)C(=O)N1CCC[C@H]1C(=O)N1CCC[C@H]1C(=O)N[C@H](C(=O)N[C@@H](CC(=O)O)C(=O)N[C@H](C(=O)NCC(=O)N[C@@H](CO)C(=O)N[C@@H](CCC(=O)O)C(=O)N[C@H](C(=O)N1CCC[C@H]1C(N)=O)[C@@H](C)O)C(C)C)[C@@H](C)O
B2: N^1-acetyl,N{Epsilon-25}-[(4S)-4-carboxy-4-(17-carboxyheptadecanoylamino)butanoyl]-[Ala1,Ser2,His3,Leu4,Ser5,Ala7,Gln8,Ala10,Glu14,His17,Asp21,Pro22,Lys25,Pro27 … (peptide)
peptide: Ac-ASHLSTAQTARLAEFLHHSSDPFGK([γGlu-C18 diacid])IPSSTDVGPDTP-NH2
SMILES: CC[C@H](C)[C@H](NC(=O)[C@H](CCCCNC(=O)CC[C@H](NC(=O)CCCCCCCCCCCCCCCCC(=O)O)C(=O)O)NC(=O)CNC(=O)[C@H](Cc1ccccc1)NC(=O)[C@@H]1CCCN1C(=O)[C@H](CC(=O)O)NC(=O)[C@H](CO)NC(=O)[C@H](CO)NC(=O)[C@H](Cc1c[nH]cn1)NC(=O)[C@H](Cc1c[nH]cn1)NC(=O)[C@H](CC(C)C)NC(=O)[C@H](Cc1ccccc1)NC(=O)[C@H](CCC(=O)O)NC(=O)[C@H](C)NC(=O)[C@H](CC(C)C)NC(=O)[C@H](CCCNC(=N)N)NC(=O)[C@H](C)NC(=O)[C@@H](NC(=O)[C@H](CCC(N)=O)NC(=O)[C@H](C)NC(=O)[C@@H](NC(=O)[C@H](CO)NC(=O)[C@H](CC(C)C)NC(=O)[C@H](Cc1c[nH]cn1)NC(=O)[C@H](CO)NC(=O)[C@H](C)NC(C)=O)[C@@H](C)O)[C@@H](C)O)C(=O)N1CCC[C@H]1C(=O)N[C@@H](CO)C(=O)N[C@@H](CO)C(=O)N[C@H](C(=O)N[C@@H](CC(=O)O)C(=O)N[C@H](C(=O)NCC(=O)N1CCC[C@H]1C(=O)N[C@@H](CC(=O)O)C(=O)N[C@H](C(=O)N1CCC[C@H]1C(N)=O)[C@@H](C)O)C(C)C)[C@@H](C)O
B3: N^1-[(4S)-4-carboxy-4-(17-carboxyheptadecanoylamino)butanoyl]-[Ala1,Ser2,His3,Leu4,Ser5,Ala7,Gln8,Glu14,His17,Asp21,Pro22,Pro27,Asp31,Pro34,Asp35]-human amylin (peptide)
peptide: {C18 diacid-γGlu}-ASHLSTAQTQRLAEFLHHSSDPFGAIPSSTDVGPDTY-NH2
SMILES: CC[C@H](C)[C@H](NC(=O)[C@H](C)NC(=O)CNC(=O)[C@H](Cc1ccccc1)NC(=O)[C@@H]1CCCN1C(=O)[C@H](CC(=O)O)NC(=O)[C@H](CO)NC(=O)[C@H](CO)NC(=O)[C@H](Cc1c[nH]cn1)NC(=O)[C@H](Cc1c[nH]cn1)NC(=O)[C@H](CC(C)C)NC(=O)[C@H](Cc1ccccc1)NC(=O)[C@H](CCC(=O)O)NC(=O)[C@H](C)NC(=O)[C@H](CC(C)C)NC(=O)[C@H](CCCNC(=N)N)NC(=O)[C@H](CCC(N)=O)NC(=O)[C@@H](NC(=O)[C@H](CCC(N)=O)NC(=O)[C@H](C)NC(=O)[C@@H](NC(=O)[C@H](CO)NC(=O)[C@H](CC(C)C)NC(=O)[C@H](Cc1c[nH]cn1)NC(=O)[C@H](CO)NC(=O)[C@H](C)NC(=O)CC[C@H](NC(=O)CCCCCCCCCCCCCCCCC(=O)O)C(=O)O)[C@@H](C)O)[C@@H](C)O)C(=O)N1CCC[C@H]1C(=O)N[C@@H](CO)C(=O)N[C@@H](CO)C(=O)N[C@H](C(=O)N[C@@H](CC(=O)O)C(=O)N[C@H](C(=O)NCC(=O)N1CCC[C@H]1C(=O)N[C@@H](CC(=O)O)C(=O)N[C@H](C(=O)N[C@@H](Cc1ccc(O)cc1)C(N)=O)[C@@H](C)O)C(C)C)[C@@H](C)O
B4: N^1-[(4S)-4-carboxy-4-(17-carboxyheptadecanoylamino)butanoyl]-[Ala1,Ser2,His3,Leu4,Ser5,Ala7,Gln8,Ala10,Glu14,His17,Asp21,Pro22,Pro27,Asp31, Pro34,Asp35]-human … (peptide)
peptide: {C18 diacid-γGlu}-ASHLSTAQTARLAEFLHHSSDPFGAIPSSTDVGPDTY-NH2
SMILES: CC[C@H](C)[C@H](NC(=O)[C@H](C)NC(=O)CNC(=O)[C@H](Cc1ccccc1)NC(=O)[C@@H]1CCCN1C(=O)[C@H](CC(=O)O)NC(=O)[C@H](CO)NC(=O)[C@H](CO)NC(=O)[C@H](Cc1c[nH]cn1)NC(=O)[C@H](Cc1c[nH]cn1)NC(=O)[C@H](CC(C)C)NC(=O)[C@H](Cc1ccccc1)NC(=O)[C@H](CCC(=O)O)NC(=O)[C@H](C)NC(=O)[C@H](CC(C)C)NC(=O)[C@H](CCCNC(=N)N)NC(=O)[C@H](C)NC(=O)[C@@H](NC(=O)[C@H](CCC(N)=O)NC(=O)[C@H](C)NC(=O)[C@@H](NC(=O)[C@H](CO)NC(=O)[C@H](CC(C)C)NC(=O)[C@H](Cc1c[nH]cn1)NC(=O)[C@H](CO)NC(=O)[C@H](C)NC(=O)CC[C@H](NC(=O)CCCCCCCCCCCCCCCCC(=O)O)C(=O)O)[C@@H](C)O)[C@@H](C)O)C(=O)N1CCC[C@H]1C(=O)N[C@@H](CO)C(=O)N[C@@H](CO)C(=O)N[C@H](C(=O)N[C@@H](CC(=O)O)C(=O)N[C@H](C(=O)NCC(=O)N1CCC[C@H]1C(=O)N[C@@H](CC(=O)O)C(=O)N[C@H](C(=O)N[C@@H](Cc1ccc(O)cc1)C(N)=O)[C@@H](C)O)C(C)C)[C@@H](C)O
B5: N^1-[(4S)-4-carboxy-4-(19-carboxynonadecanoylamino)butanoyl]-[Ala1,Ser2,His3,Leu4,Ser5,Ala7,Gln8,Ala10,Glu14,His17,Asp21,Pro22,Pro27,Asp31, … (peptide)
peptide: {C20 diacid-γGlu}-ASHLSTAQTARLAEFLHHSSDPFGAIPSSTDVGPDTP-NH2
SMILES: CC[C@H](C)[C@H](NC(=O)[C@H](C)NC(=O)CNC(=O)[C@H](Cc1ccccc1)NC(=O)[C@@H]1CCCN1C(=O)[C@H](CC(=O)O)NC(=O)[C@H](CO)NC(=O)[C@H](CO)NC(=O)[C@H](Cc1c[nH]cn1)NC(=O)[C@H](Cc1c[nH]cn1)NC(=O)[C@H](CC(C)C)NC(=O)[C@H](Cc1ccccc1)NC(=O)[C@H](CCC(=O)O)NC(=O)[C@H](C)NC(=O)[C@H](CC(C)C)NC(=O)[C@H](CCCNC(=N)N)NC(=O)[C@H](C)NC(=O)[C@@H](NC(=O)[C@H](CCC(N)=O)NC(=O)[C@H](C)NC(=O)[C@@H](NC(=O)[C@H](CO)NC(=O)[C@H](CC(C)C)NC(=O)[C@H](Cc1c[nH]cn1)NC(=O)[C@H](CO)NC(=O)[C@H](C)NC(=O)CC[C@H](NC(=O)CCCCCCCCCCCCCCCCCCC(=O)O)C(=O)O)[C@@H](C)O)[C@@H](C)O)C(=O)N1CCC[C@H]1C(=O)N[C@@H](CO)C(=O)N[C@@H](CO)C(=O)N[C@H](C(=O)N[C@@H](CC(=O)O)C(=O)N[C@H](C(=O)NCC(=O)N1CCC[C@H]1C(=O)N[C@@H](CC(=O)O)C(=O)N[C@H](C(=O)N1CCC[C@H]1C(N)=O)[C@@H](C)O)C(C)C)[C@@H](C)O
B6: N^1-[(4S)-4-carboxy-4-(17-carboxyheptadecanoylamino)butanoyl]-[Ala1,Ser2,His3,Leu4,Ser5,Ala7,Gln8,Ala10,Glu14,His17,Asp21,Pro25,Pro28,Pro29,Asp31]-human amylin (peptide)
peptide: {C18 diacid-γGlu}-ASHLSTAQTARLAEFLHHSSDNFGPILPPTDVGSNTY-NH2
SMILES: CC[C@H](C)[C@H](NC(=O)[C@@H]1CCCN1C(=O)CNC(=O)[C@H](Cc1ccccc1)NC(=O)[C@H](CC(N)=O)NC(=O)[C@H](CC(=O)O)NC(=O)[C@H](CO)NC(=O)[C@H](CO)NC(=O)[C@H](Cc1c[nH]cn1)NC(=O)[C@H](Cc1c[nH]cn1)NC(=O)[C@H](CC(C)C)NC(=O)[C@H](Cc1ccccc1)NC(=O)[C@H](CCC(=O)O)NC(=O)[C@H](C)NC(=O)[C@H](CC(C)C)NC(=O)[C@H](CCCNC(=N)N)NC(=O)[C@H](C)NC(=O)[C@@H](NC(=O)[C@H](CCC(N)=O)NC(=O)[C@H](C)NC(=O)[C@@H](NC(=O)[C@H](CO)NC(=O)[C@H](CC(C)C)NC(=O)[C@H](Cc1c[nH]cn1)NC(=O)[C@H](CO)NC(=O)[C@H](C)NC(=O)CC[C@H](NC(=O)CCCCCCCCCCCCCCCCC(=O)O)C(=O)O)[C@@H](C)O)[C@@H](C)O)C(=O)N[C@@H](CC(C)C)C(=O)N1CCC[C@H]1C(=O)N1CCC[C@H]1C(=O)N[C@H](C(=O)N[C@@H](CC(=O)O)C(=O)N[C@H](C(=O)NCC(=O)N[C@@H](CO)C(=O)N[C@@H](CC(N)=O)C(=O)N[C@H](C(=O)N[C@@H](Cc1ccc(O)cc1)C(N)=O)[C@@H](C)O)C(C)C)[C@@H](C)O

Key:
[1] = target: T1, human amylin-3(a) receptor; assay: cell-based or functional assay
[2] = target: T2, human calcitonin receptor (a); assay: cell-based or functional assay

| hAmyR3 potency, EC50 (pM); CRE-luciferase reporter in BHK cells [1] [pM] | hCalcR potency, EC50 (pM); CRE-luciferase reporter in BHK cells [2] [pM] | Binder |
| --- | --- | --- |
| 1.09 | 1.49 | B1 |
| 1.38 | 1.29 | B2 |
| 2.96 | 3.22 | B3 |
| 1.68 | 2.16 | B4 |
| 1.05 | 1.41 | B5 |
| 1.97 | 3.15 | B6 |
